In publication PMC3339974 (The Journal of Biological Chemistry, 2012):

T1: soluble mouse CD3ϵ ectodomain homodimer (Mus musculus (strain ))
T1 chain: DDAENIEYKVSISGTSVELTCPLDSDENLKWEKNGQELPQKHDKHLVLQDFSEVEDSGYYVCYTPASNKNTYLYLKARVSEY


Legend:
[1] = biological target: soluble mouse CD3ϵ ectodomain homodimer (mouse) (UniProt P22646)
[2] = biological target: T1, soluble mouse CD3ϵ ectodomain homodimer; assay: crystal structure

Sequence of soluble mouse CD3ϵ ectodomain homodimer (P22646 23-108): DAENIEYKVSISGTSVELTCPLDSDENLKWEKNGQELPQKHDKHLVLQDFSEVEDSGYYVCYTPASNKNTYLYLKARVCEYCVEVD

| Molecule | stoichiometry N [1] | binding result [2] |
| --- | --- | --- |
| soluble mouse CD3ϵ ectodomain homodimer (from UniProt P22646 23-108) (domain or fragment) | 2 | – |
| 2C11 Fab (Fab, V domains shown) VH: EVQLVESGGGLVQPGKSLKLSCEASGFTFSGYGMHWVRQAPGRGLESVAYITSSSINIKYADAVKGRFTVSRDNAKNLLFLQMNILKSEDTAMYYCARFDWDKNYWGQGTMVTVSS VL: DIQMTQSPSSLPASLGDRVTINCQASQDISNYLNWYQQKPGKAPKLLIYYTNKLADGVPSRFSGSGSGRDSSFTISSLESEDIGSYYCQQYYNYPWTFGPGTKLEIK | – | binds |
